Reference: patent publication US20190144565A1 (UCB, published 2019)

Assays:
[1] = biological target: IgE-Fc, the Fc portion of human IgE (Cε2-Cε4 domains, V224-K547 by Dorrington & Bennich numbering, carrying a C225A mutation) (human) (UniProt P01854); experiment: flow cytometry, Alexa488 IgE-Fc on RBL-SX38 cells; control at 1 ug/mL
[2] = biological target: IgE-Fc, the Fc portion of human IgE (Cε2-Cε4 domains, V224-K547 by Dorrington & Bennich numbering, carrying a C225A mutation) (human) (UniProt P01854); experiment: flow cytometry, Alexa488 IgE-Fc on RBL-SX38 cells; control at 10 ug/mL
[3] = biological target: IgE-Fc, the Fc portion of human IgE (Cε2-Cε4 domains, V224-K547 by Dorrington & Bennich numbering, carrying a C225A mutation) (human) (UniProt P01854); experiment: flow cytometry, Alexa488 IgE-Fc on RBL-SX38 cells; control at 31 ug/mL
[4] = biological target: IgE-Fc, the Fc portion of human IgE (Cε2-Cε4 domains, V224-K547 by Dorrington & Bennich numbering, carrying a C225A mutation) (human) (UniProt P01854); experiment: flow cytometry, Alexa488 IgE-Fc on RBL-SX38 cells; control at 100 ug/mL
[5] = biological target: IgE-Fc, the Fc portion of human IgE (Cε2-Cε4 domains, V224-K547 by Dorrington & Bennich numbering, carrying a C225A mutation) (human) (UniProt P01854); experiment: flow cytometry, Alexa488 IgE-Fc on RBL-SX38 cells; control at 3.1 ug/mL

Chain of IgE-Fc, the Fc portion of human IgE (Cε2-Cε4 domains, V224-K547 by Dorrington & Bennich numbering, carrying a C225A mutation) (human) (P01854 other isoform, or with tags, fused parts or gaps C225A C225A limits assumed): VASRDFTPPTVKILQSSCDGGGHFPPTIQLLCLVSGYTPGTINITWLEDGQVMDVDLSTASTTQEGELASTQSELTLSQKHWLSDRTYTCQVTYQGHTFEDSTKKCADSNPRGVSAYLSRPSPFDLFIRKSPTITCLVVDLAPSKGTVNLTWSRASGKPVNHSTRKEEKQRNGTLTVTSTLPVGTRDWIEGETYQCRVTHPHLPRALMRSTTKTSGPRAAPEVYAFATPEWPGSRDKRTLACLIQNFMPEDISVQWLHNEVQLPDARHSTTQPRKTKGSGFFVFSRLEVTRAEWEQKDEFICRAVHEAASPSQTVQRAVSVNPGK

Isotype control (antibody)
dissociation rate of IgE-Fc from FcεRI on cells [1]: 1.25e-05 s⁻¹
dissociation rate of IgE-Fc from FcεRI on cells [2]: 1.35e-05 s⁻¹
dissociation rate of IgE-Fc from FcεRI on cells [3]: 1.28e-05 s⁻¹
dissociation rate of IgE-Fc from FcεRI on cells [4]: 1.3e-05 s⁻¹
dissociation rate of IgE-Fc from FcεRI on cells [5]: 1.19e-05 s⁻¹
